US9751932B2, “Anti-big-endothelin-1 (big-ET-1) antibodies and uses thereof” (Regeneron Pharmaceuticals, Inc., priority 2012, dated 2017)

T1: human big-ET-1 (SEQ ID NO:434) (Homo sapiens, UniProt P05305)
T1 sequence (P05305 53-90 limits assumed): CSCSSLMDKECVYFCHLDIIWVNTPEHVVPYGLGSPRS

T2: mouse big-ET-1 (SEQ ID NO:437) (Mus musculus, UniProt P22387)
T2 sequence (P22387 53-91 limits assumed): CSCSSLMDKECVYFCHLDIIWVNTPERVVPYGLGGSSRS


Key:
[1] = target: T1, human big-ET-1 (SEQ ID NO:434); assay: Surface plasmon resonance (Biacore) binding, mAb capture format, 37° C.; conditions: for ka / kd: analyte human big-ET-1, mAb capture
Experimental: (§1) Measurements were conducted on a T200 Biacore instrument (Biacore Life Sciences division of GE Healthcare, Piscataway, N.J.). […] Different concentrations of small-ET-1 (SEQ ID NO:435), human big-ET-1 (SEQ ID NO:434) or mouse big-ET-1 (SEQ ID NO:437) were injected over the anti-big-ET-1 captured surfaces at a flow rate of 100 μl/min. Peptide binding was monitored for 3 min while dissociation of mAb-bound peptide was monitored for 4 min in HBST running buffer (0.01 M HEPES pH 7.4, 0.15 M NaCl, 3 mM EDTA, 0.005% v/v Surfactant P20). Kinetic association (ka) and dissociation (kd) rate constants were determined by processing and fitting the data to a 1:1 binding model using Scrubber 2.0 curve fitting software.

[2] = target: T2, mouse big-ET-1 (SEQ ID NO:437); assay: as above; conditions: for ka / kd / Kd: analyte mouse big-ET-1, mAb capture; for Kd: KD=kd/ka
Experimental: as §1

Molecule | ka [1] | kd [1] | ka [2] | kd [2] | binding to human big-ET-1 (in words) [1] | binding to mouse big-ET-1 (in words) [2] | Kd [2]
H4H6323P: anti-big-ET-1 antibody, human IgG4 Fc; HCVR/LCVR SEQ ID NO: 146/154 (antibody, V domains shown, human IgG4 Fc) VH: QITLKESGPPLVKPTQTLTLTCTFSGFSLNTNGMGVGWIRQPPGKALEWLTLIYWNDDKRYSPSLKTRLTITKDTSKNQVVLTMTNMDPVDTATYYCARFGSGTYWGQGTLVTVSS VL: DIVMTQSPLSLPVTPGEPASISCRSSQSLLHSYGYNFLDWFLQKPGQSPQLLIYLGSHRASGVPDRFSGSGSGTDFTLKISRVEAEDVGVYYCMQALQTPLTFGGGTKVEIK | 565000 M/s | 0.00569 s⁻¹ | 580000 M/s | 0.0192 s⁻¹ |  |  | 
H4H6317P: anti-big-ET-1 antibody, human IgG4 Fc; HCVR/LCVR SEQ ID NO: 130/138 (antibody, V domains shown, human IgG4 Fc) VH: QVQLVESGGGVVQPGRSLRLSCAASGFTFSSYGMHWVRQAPGKGLEWVAVLWYDGRNKYYADSVKGRFTISRDNSKNTLYLQMNSLRAEDTAVYYCARSYDAFDIWGQGTMVTVSS VL: DIQMTQSPSTLSASVGDRVTITCRASQSISSWLAWFQQGPGRAPKLLIYKASTLQSGVPSRFSGSGSGTEFTLTISSLQPDDFATYYCQQYRSYSPTFGQGTKVEIK | 36700 M/s | 0.000199 s⁻¹ |  |  | high affinity binding | did not show any binding | > 1000 nM
H1M6492N: anti-big-ET-1 hybridoma antibody, H1M Fc; HCVR/LCVR SEQ ID NO: 34/42 (antibody, V domains shown, mouse Fc) VH: EVQLVESGGGLVKPGGSLRVSCVASGFTFSNAWMTWVRQTPGKGLECVGRIKSRTDGGTVDYVAPVKGRFTISRDDSKNTLYLQMNSLKAEDTAVYYCRADLDYWGQGTLVTVSS VL: DVVMTQSPLSLPVSLGQPASISCRSSQSLVHSDGITYLNWFQQRPGQSPRRLIYKISNRDSGVPDRFSGSGSGTDFTLKFSRVEAEDVGVYFCMQGTHWPYTFGQGTKLEIK | 248000 M/s | 0.0016 s⁻¹ |  |  | high affinity binding | did not show any binding | > 1000 nM
H1M6494N: anti-big-ET-1 hybridoma antibody, H1M Fc; HCVR/LCVR SEQ ID NO: 50/58 (antibody, V domains shown, mouse Fc) VH: EVQLVESGGGLVKPGGSLRVSCVASGFTFSNAWMTWVRQTPGKGLECVGRIKSRTDGGTVDYVAPVKGRFTISRDDSKNTLYLQMNSLKAEDTAVYYCRADLDYWGQGTLVTVSS VL: DVVMTQSPLSLPVSLGQPASISCRSSQSLVHSDGITYLNWFQQRPGQSPRRLIYKISNRDSGVPDRFSGSGSGTDFTLKFSRVEAEDVGVYFCMQGTHWPYTFGQGTKLEIK | 239000 M/s | 0.00169 s⁻¹ |  |  | high affinity binding | did not show any binding | > 1000 nM

Further lines, results first:

ka [1] | kd [1] | ka [2] | kd [2] | binding to human big-ET-1 (in words) [1] | binding to mouse big-ET-1 (in words) [2] | Kd [2] | Molecule
595000 M/s | 0.000176 s⁻¹ | 11600 M/s | 0.000223 s⁻¹ |  |  |  | H4H6329P: anti-big-ET-1 antibody, human IgG4 Fc; HCVR/LCVR SEQ ID NO: 194/202 (antibody, V domains shown, human IgG4 Fc) VH: QVQLVESGGGVVQPGRSLRLSCAASGFTFGSYGMHWVRQAPGKGLEWVAVIWYDGSDEYYTDSVKGRFTVSRDNSKYTLYLQMNSLRADDTAVYYCARDGYRTRGNYFDYWGQGTLVTVSS VL: DVVMTQSPLSLPVALGQPASISCRSSQSLVYSDGNTYLNWFQQRPGQSPRRLIYKVSNRDSGVPDRFGGSGSGTDFTLKISRVEAEDVGLYYCMQGTHWPPTFGGGTKVEIK
1.14e+06 M/s | 0.00116 s⁻¹ | 2900 M/s | 0.00236 s⁻¹ |  |  |  | H4H6353P: anti-big-ET-1 antibody, human IgG4 Fc; HCVR/LCVR SEQ ID NO: 386/394 (antibody, V domains shown, human IgG4 Fc) VH: EVQLVESGGGLVKPGGSLRLSCAASGFSFNYAWMSWVRQAPGKGLEWIGRIKSKINGGTTDYTAPVKGRFTISRDDSKNTLYLQMNSLKTEDTAVYYCRGDEDFWGQGTLVTVSS VL: DVVMTQSPLSLPVTLGQPASISCRSSQSLVYSDGFTYLNWFRQRPGQSPRRLIYKVSNRDSGVPDRFSGSGSGTDFTLRISRVEAEDVGIYYCMQGTHWPYTFGQGTKLEIK
1.42e+06 M/s | 0.0324 s⁻¹ | 1.5e+06 M/s | 0.072 s⁻¹ |  |  |  | H4H6330P: anti-big-ET-1 antibody, human IgG4 Fc; HCVR/LCVR SEQ ID NO: 210/218 (antibody, V domains shown, human IgG4 Fc) VH: EVQLVESGGGLVQPGGSLRLSCAASGFTFSNYAMSWVRQAPGKGLEWVSAVSGSGVGTYYADSVKGRFTISRDNSKNTLYLQMKSLSAEDTALYYCTKTLGGTHAFDIWGQGTMVTVSS VL: DIQMTQSPSTLSASVGDRVTITCRASQSISRWLAWYQQKPGKAPKLLIYKASSLESGVPSRFSGSGSGTEFTVTINSLQPDDFATYYCQQYNSYSSFGQGTKLEIK
663000 M/s | 0.058 s⁻¹ | 1.5e+06 M/s | 0.0974 s⁻¹ |  |  |  | H4H6345P: anti-big-ET-1 antibody, human IgG4 Fc; HCVR/LCVR SEQ ID NO: 354/362 (antibody, V domains shown, human IgG4 Fc) VH: EVQLVESGGGLVQPGGSLRLSCAASGFIFSSYAMTWVRQAPGKGLEWVSAISGSGVSTYYADSVKGRFTISRDNSKNTLYLQMNSLRIEDTAVYYCGKARTGTHAFDIWGQGTMVTVSS VL: DIQMTQSPSTLSASVGDRVTITCRASQSISRWLAWYQQKPGKAPKLLIYKASSLETGVPSRFSGSGSGTEFTLTISSLQPDDFGTYYCQQYNSYSSFGPGTKVDIK
